The source of these data is patent US12365912 (UNIVERSITY OF FLORIDA RESEARCH FOUNDATION, dated 2025).

B1: EYFP^C-CsACD2 (other)
chain: MAVNHLCQWQYLRFQLSHPSAPACRYLSPSRPKSSTSSTAKVNCSAAPSSSPMDSHNEGRKKFMEFPYASGPVRQLMVDLVSTVENTLDSQLLPCTLPPDVQYYENQNGTAQASLQIRSGLKSSLIDFILGSWVHSELPTGAALNITSLSAYLNSSTDAPNLLIELIQSSPTSLVLILDLPPRKDLVLHPDYLHTFYESTRLDEYRQMLEKVPEVRPYFSSSLYLRCVVSPSAIMVRVDTETETGAGESTRLDYIITNHVHPVAKQVIGIWLNQCACGGRHVGESDKAYLEKRDGLIKNKTIEIDLGSSFPRLFGPQVASRVLGEIQKVFTA
notes: not shown: C-terminal fragment of EYFP (pSAT6-cEYFP-C1-B) and its linker
B2: CsACD2-EYFP^N (other)
chain: B1 chain
notes: not shown: N-terminal fragment of EYFP (pSAT6-nEYFP-C1) and its linker

In assay [1] the target is SDE15-EYFP^N ([…]_04025 without signal peptide fused to the N-terminal fragment of EYFP) (Ca. liberibacter asiaticus). The assay can be described thus: BiFC in citrus leaf protoplasts (FIG. 10B).
Assay [2] concerns the target EYFP^C-SDE15 ([…]_04025 without signal peptide fused to the C-terminal fragment of EYFP) (Ca. liberibacter asiaticus). The assay can be described thus: BiFC in citrus leaf protoplasts (FIG. 10B).
The assay “EYFP^C-CsACD2” concerns the target B1. Briefly: BiFC in citrus leaf protoplasts.

For the molecule B1, the binding result in assay [1] is “binds”. In the case of B2, the binding result in assay [2] was “binds”; with EYFP^C-CsACD2, “no binding”.
